Reference: patent publication CN114773460A

Biological target: 轮状病毒重组蛋白VP8 (recombinant rotavirus VP8, part of the spike protein VP4) (轮状病毒 (rotavirus; strain not stated))
Test: ELISA, antigen coated at 10 μg/mL, Rot1 in 2-fold dilutions from 10 μg/mL (16 points), anti-His detection, OD450

B1: 纳米抗体Rot1 (nanobody Rot1, fusion protein with C-terminal histidine tag and human influenza hemaggluti (VHH)
VHH: QVQLQESGGGLVQAGGSLRLSCTASGYRFSNLAVGWFRQAPGQEREAVAVIFVGGITYYADSVKGRFTISRDNAKNTVTLQMNNLKPEDTAIYYCAAYVHMYCASQTITRYDYWGQGTQVTVSS
EC50: 0.195 µg/mL
